Legend:
[1] = molecular target: human Cathepsin G (human) (UniProt P08311); experiment: Cat-G beads, SUM of all pH elution fractions
[2] = molecular target: human neutrophil elastase (human) (UniProt P08246); experiment: HNE beads, abbreviated fractionation, SUM of pH fractions
[3] = molecular target: human neutrophil elastase (human) (UniProt P08246); experiment: HNE beads, abbreviated fractionation, WASH
[4] = molecular target: human neutrophil elastase (human) (UniProt P08246); experiment: HNE beads, pH 3.5 elution
[5] = molecular target: human Cathepsin G (human) (UniProt P08311); experiment: Cat-G beads, pH 3.5 elution
[6] = molecular target: human Cathepsin G (human) (UniProt P08311); experiment: Cat-G beads, pH 3.0 elution
[7] = molecular target: human Cathepsin G (human) (UniProt P08311); experiment: Cat-G beads, pH 5.5 elution
[8] = molecular target: human neutrophil elastase (human) (UniProt P08246); experiment: HNE beads, abbreviated fractionation, pH 7.0
[9] = molecular target: human neutrophil elastase (human) (UniProt P08246); experiment: HNE beads, pH 5.0 elution
[10] = molecular target: human neutrophil elastase (human) (UniProt P08246); experiment: HNE beads, pH 2.5 elution
[11] = molecular target: human neutrophil elastase (human) (UniProt P08246); experiment: HNE beads, pH 7.0 elution
[12] = molecular target: human neutrophil elastase (human) (UniProt P08246); experiment: HNE beads, pH 4.0 elution
[13] = molecular target: human Cathepsin G (human) (UniProt P08311); experiment: Cat-G beads, pH 2.5 elution
[14] = molecular target: human neutrophil elastase (human) (UniProt P08246); experiment: HNE beads, final TBS-TWEEN wash
[15] = molecular target: human Cathepsin G (human) (UniProt P08311); experiment: Cat-G beads, pH 2.0 elution
[16] = molecular target: human Cathepsin G (human) (UniProt P08311); experiment: Cat-G beads, pH 5.0 elution
[17] = molecular target: human Cathepsin G (human) (UniProt P08311); experiment: Cat-G beads, pH 4.0 elution
[18] = molecular target: human Cathepsin G (human) (UniProt P08311); experiment: Cat-G beads, pH 6.0 elution
[19] = molecular target: human Cathepsin G (human) (UniProt P08311); experiment: Cat-G beads, final TBS-TWEEN wash
[20] = molecular target: human neutrophil elastase (human) (UniProt P08246); experiment: HNE beads, SUM of all pH elution fractions
[21] = molecular target: human neutrophil elastase (human) (UniProt P08246); experiment: HNE beads, pH 4.5 elution
[22] = molecular target: human neutrophil elastase (human) (UniProt P08246); experiment: HNE beads, abbreviated fractionation, pH 3.5
[23] = molecular target: human neutrophil elastase (human) (UniProt P08246); experiment: HNE beads, abbreviated fractionation, pH 2.0
[24] = molecular target: human neutrophil elastase (human) (UniProt P08246); experiment: HNE beads, pH 5.5 elution
[25] = molecular target: human Cathepsin G (human) (UniProt P08311); experiment: Cat-G beads, pH 7.0 elution
[26] = molecular target: human neutrophil elastase (human) (UniProt P08246); experiment: HNE beads, pH 6.0 elution
[27] = molecular target: human neutrophil elastase (human) (UniProt P08246); experiment: HNE beads, pH 2.0 elution
[28] = molecular target: human Cathepsin G (human) (UniProt P08311); experiment: Cat-G beads, pH 4.5 elution
[29] = molecular target: human neutrophil elastase (human) (UniProt P08246); experiment: HNE beads, pH 3.0 elution
trypsin [30] = molecular target: trypsin (UniProt P00760); experiment: acid elution from trypsin beads
Sequence of trypsin (P00760 24-246): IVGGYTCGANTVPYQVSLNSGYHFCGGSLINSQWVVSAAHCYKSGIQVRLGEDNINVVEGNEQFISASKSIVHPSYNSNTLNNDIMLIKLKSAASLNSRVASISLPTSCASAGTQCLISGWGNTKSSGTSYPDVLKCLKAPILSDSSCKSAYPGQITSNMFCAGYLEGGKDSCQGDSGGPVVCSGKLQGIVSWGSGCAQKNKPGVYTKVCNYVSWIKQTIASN

anhydro-trypsin [31] = molecular target: anhydro-trypsin (UniProt P00760); experiment: loss of titer on anhydrotrypsin beads
Sequence of anhydro-trypsin (P00760 24-246): as above

anhydro-trypsin [32] = molecular target: anhydro-trypsin (UniProt P00760); experiment: acid elution from anhydrotrypsin beads, experiment 1
anhydro-trypsin [33] = molecular target: anhydro-trypsin (UniProt P00760); experiment: elution from anhydrotrypsin beads
anhydro-trypsin [34] = molecular target: anhydro-trypsin (UniProt P00760); experiment: acid elution from anhydrotrypsin beads, experiment 2
trypsin [35] = molecular target: trypsin (UniProt P00760); experiment: elution from trypsin beads
[36] = molecular target: human neutrophil elastase (human) (UniProt P08246); experiment: acid elution from HNE beads
[37] = molecular target: M13 MB48 phage (BPTI:VIII fusion display phage) (bovine BPTI fused to phage M13 gene VIII protein); experiment: strain M13MB48 batch 5; NRS IgG and protein A-agarose
[38] = molecular target: M13 MB48 phage (BPTI:VIII fusion display phage) (bovine BPTI fused to phage M13 gene VIII protein); experiment: strain M13MB48 batch 5; NRS IgG added
M13 mp18 phage [39] = experiment: strain M13MP18; IgG from normal rabbit serum added
[40] = molecular target: M13 MB48 phage (BPTI:VIII fusion display phage) (bovine BPTI fused to phage M13 gene VIII protein); experiment: strain M13MB48 batch 4; NRS IgG and protein A-agarose
M13 mp18 phage [41] = experiment: strain M13MP18; NRS IgG and protein A-agarose
[42] = molecular target: M13 MB48 phage (BPTI:VIII fusion display phage) (bovine BPTI fused to phage M13 gene VIII protein); experiment: strain M13MB48 batch 4; NRS IgG added
trypsin [43] = molecular target: trypsin (UniProt P00760); experiment: immobilized trypsin, TBS buffer pH 7.5, pH 2.2 elution
trypsin [44] = molecular target: trypsin (UniProt P00760); experiment: immobilized trypsin, CBS buffer pH 6.5, pH 2.2 elution
[45] = molecular target: M13 MB48 phage (BPTI:VIII fusion display phage) (bovine BPTI fused to phage M13 gene VIII protein); experiment: strain M13MB48 batch 5; protein A-agarose alone

Sequence of human neutrophil elastase (human) (P08246 30-247 limits assumed): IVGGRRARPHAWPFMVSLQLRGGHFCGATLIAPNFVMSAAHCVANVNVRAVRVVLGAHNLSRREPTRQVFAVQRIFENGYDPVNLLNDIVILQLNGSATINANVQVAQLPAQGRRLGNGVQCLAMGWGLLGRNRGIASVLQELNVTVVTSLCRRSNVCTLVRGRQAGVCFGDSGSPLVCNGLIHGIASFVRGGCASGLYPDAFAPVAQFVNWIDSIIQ
Sequence of human Cathepsin G (human) (P08311 21-244 limits assumed): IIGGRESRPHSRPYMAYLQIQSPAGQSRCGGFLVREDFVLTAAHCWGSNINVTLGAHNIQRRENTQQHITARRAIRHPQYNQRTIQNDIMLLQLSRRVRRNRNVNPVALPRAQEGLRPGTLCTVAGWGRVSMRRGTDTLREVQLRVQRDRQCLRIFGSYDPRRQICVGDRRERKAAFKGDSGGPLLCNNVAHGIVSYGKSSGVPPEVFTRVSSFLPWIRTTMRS

Substance: MA-ITI phage (ITI-D1-III fusion display phage) (from UniProt P02760 22-77)
- fraction of input [1]: 3e-05
- total pfu in sample [1]: 1.4e+07 pfu
- fraction of input [2]: 1.4e-05
- fraction of input [3]: 1e-05
- fraction of input [4]: 1.4e-07
- total pfu in sample [4]: 49000 pfu
- fraction of input [5]: 9.6e-07
- total pfu in sample [5]: 440000 pfu
- fraction of input [6]: 7.8e-07
- total pfu in sample [6]: 360000 pfu
- fraction of input [7]: 2.6e-06
- total pfu in sample [7]: 1.2e+06 pfu
- fraction of input [8]: 1e-05
- fraction of input [9]: 9.1e-07
- total pfu in sample [9]: 310000 pfu
- fraction of input [10]: 4.1e-08
- total pfu in sample [10]: 14000 pfu
- fraction of input [11]: 4.7e-06
- total pfu in sample [11]: 1.6e+06 pfu
- fraction of input [12]: 2.1e-07
- total pfu in sample [12]: 72000 pfu
- fraction of input [13]: 5.9e-07
- total pfu in sample [13]: 270000 pfu
- fraction of input [14]: 5.3e-06
- total pfu in sample [14]: 1.8e+06 pfu
- fraction of input [15]: 7e-07
- total pfu in sample [15]: 320000 pfu
- fraction of input [16]: 2.4e-06
- total pfu in sample [16]: 1.1e+06 pfu
- fraction of input [17]: 9.6e-07
- total pfu in sample [17]: 440000 pfu
- fraction of input [18]: 5e-06
- total pfu in sample [18]: 2.3e+06 pfu
- fraction of input [19]: 1.5e-05
- total pfu in sample [19]: 7.1e+06 pfu
- fraction of input [20]: 2e-05
- total pfu in sample [20]: 5.7e+06 pfu
- fraction of input [21]: 3.5e-07
- total pfu in sample [21]: 120000 pfu
- fraction of input [22]: 3e-06
- fraction of input [23]: 1e-06
- fraction of input [24]: 4.7e-06
- total pfu in sample [24]: 1.6e+06 pfu
- fraction of input [25]: 1.3e-05
- total pfu in sample [25]: 6.1e+06 pfu
- fraction of input [26]: 2.9e-06
- total pfu in sample [26]: 1e+06 pfu
- fraction of input [27]: 5e-08
- total pfu in sample [27]: 17000 pfu
- fraction of input [28]: 1.5e-06
- total pfu in sample [28]: 670000 pfu
- fraction of input [29]: 8.5e-08
- total pfu in sample [29]: 29000 pfu

Substance: M13 mp18 phage
- eluted phage, percentage of input (trypsin [30]): 0.0005%
- relative binding (to M13MP18) (trypsin [30]): 1
- pfu post incubation, percentage of input (anhydro-trypsin [31]): 121%
- eluted phage, percentage of input (anhydro-trypsin [32]): 0.2%
- relative to M13MP18 (anhydro-trypsin [32]): 1
- eluted phage, percentage of input (anhydro-trypsin [33]): 0.1%
- relative binding (to M13MP18) (anhydro-trypsin [33]): 1
- eluted phage, percentage of input (anhydro-trypsin [34]): 0.3%
- relative to M13mp18 (anhydro-trypsin [34]): 1
- eluted phage, percentage of input (trypsin [35]): 0.00023%
- relative binding (to M13MP18) (trypsin [35]): 1
- eluted phage, percentage of input [36]: 0.0003%
- relative binding (to M13MP18) [36]: 1

Substance: normal rabbit serum / IgG purified from normal rabbit serum (antibody)
- percentage of input phage (pfu) remaining [37]: 110%
- percentage of input phage (pfu) remaining [38]: 105%
- percentage of input phage (pfu) remaining (M13 mp18 phage [39]): 104%
- percentage of input phage (pfu) remaining [40]: 121%
- percentage of input phage (pfu) remaining (M13 mp18 phage [41]): 88%
- percentage of input phage (pfu) remaining [42]: 125%

Substance: MK phage
- percent of input phage recovered (trypsin [43]): 0.00034%
- percent of input phage recovered (trypsin [44]): 0.00028%

Substance: protein A (agarose beads)
- percentage of input phage (pfu) remaining [45]: 58%
